Experimental data: the nanobody polyreactivity screen of Harvey et al. (2022)

Assay: yeast display, Sf9 membrane polyspecificity reagent, FACS + sequencing; frameworks hold sequencing errors
Method in brief: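 Sorting gates, low and high (top ~1%), were placed on anti-HA fluorescence to track expression and on streptavidin fluorescence to track reagent binding. A clone's polyreactivity label is taken from the gate it came out of. The reagent was 10% biotinylated, detergent-solubilized Sf9 membrane, applied for 1 hour at 4 °C to galactose-induced yeast display cells.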

Sequence	polyreactivity (PSR sort gate)
QVQLVESGGGLVQAGGSLRLSCAASGFTFTPNAMGWYRQAPGKERELVAAITWNGGTTYYADSVKGRFTISRDNAKNTVYLQMNSLKPEDTAVYYCNADGLILYDYWGQGTQVTVSS	low polyreactivity
QVQLVESGGGLVQAGGSLRLSCAASGFIFRSYDMGWYRQAPGKERELVAAITRGGRTYYADSVKGRFTISRDNAKNTVYLQMNSLKPEDTAVYYCAARGTHVADGYYWGQGTQVTVSS	high polyreactivity
QVQLVESGGGLVQAGGSLRLSCAASGSIFPYNAMGWYRQAPGKEMELVATISSGGSTNYADSVKGRFTISRDNAKNTVYLQMNSLKPEDTAVYYCAADVIVFYYAPNYWGDIEYGYWGQGTQVTVSS	low polyreactivity
QVQLVESGGGLVQAGGSLRLSCAASGIIFRGYFMGWYRQATGKERELVAAISTSGGRTSYADSVKGRFTISRDNAKNTVYLQMNSLKPEDTAVYYCAARPLYSYSHWGYGYWGQGTQVTVSS	high polyreactivity
QVQLVESAGALVQAGGSLRLSCAASGRIFSVYAMGWYRQAPGKERELVATITYNGGSTYYADSVKGRFTISRDNAKNTVYLQMNSLKPEDTAVYYCAADWTYVRFDYWGQGTQVTVSS	low polyreactivity
QVQLVESGGGLVQAGGSLRLSCAASGFTIYSYAMGWYRQAPGKERELVAAISSGGSTYYADSVKGRFTISRDNAKNTVYLQMNSLKPEDTAVYYCARRYQVVWYYKYDYWGQGTQVTVSS	high polyreactivity
QVQLVESGGGLVQAGGSLRLSCAASGRILIPYAMGWYRQAPGKEREFVAGITGSGGRTYYADSVKGRFTISRDNAKNTVYLQMNSLKPEDTAVYYCAADYYYSPTMYYWGQGTQVTVSS	low polyreactivity
QVQLVESGGGLDQAGGSLRISCAASGSTLLGNAMGWYRQAPGKERELVAAISTSGDSTNYADSVKGRFTISRDNAKNTVYLQMNSLKPEDTAVYYCNAGGYLISDVDRVGYWGQGTQVTVSS	low polyreactivity
QVHLVESGGGLVQAGGSLRLSFAAYGIIFKYYAMVWYRQAPGKERELVASITDRGGSTYYSDSLKGRFTISRDNAKNTFYLQMNSLKPEDTAVYYCAAVPSTGKSGIRGGYWGQCTQVTVSS	high polyreactivity
QVQLVESGGGLVQAGGSLRLSCAASGSIFGRNAMGWYRHAPGKERELVARISSRGGSTYYADSVKGRFTISRDNAKKTVYLQMNSLKPEDTAVYYCNRDRTWQTNDYWGQGTQVTVSS	high polyreactivity
QVQLVESGGGLVQAGGSLRLSCAASGITFDENTMGWYRQATGKERELVASISNGGNTYYADSVKGRFTISRDNAKNTVYLQMNSLKPEDSAVYYCAARYGYYYSRYDHWGQGTQVTVSS	low polyreactivity
QVQLVESGGGLVQAGGSLRLSCAASGGILNRYAMGWYRQAPGKERELVAAIRWSGGSTYYADSVKGRFTISRDNAKNTVYLQMNSLKPEDTAVYYCAADVYYYHVLDFDYWGQGTLVTVSS	low polyreactivity
QVQLVESGGGLVQAGGSLRLSCAASGSTFFKNAMGWYRQAPGKERELVAAISTGGGSTTYADSVKGRFTISRDNAKNTVYLQMNSLKPEDTAVYYCAAVTLSSTYGGHDYWGQGTQVTVSS	high polyreactivity
QVQLVESGGGLVQAGGSLRLSCAASGFIFHLYSLGWYRQAPGKERELVAVISGGGSTYYADSVKGRFTISRDNAKNTVYLQMNSLKPEDTAVYYCNVGRYYRYATGGDYWGQGTQVTVSS	high polyreactivity
QVQLVESGGGLVQAGGSLRLSCAASGSIFAVYAMGWYRQAPGKERELVATISGRGGSTYYADSVKVRFTISRDNAKNTVYLQMNSLKPEDTAVYYCNARVLFRRERMDSWGQGTKVTVSS	high polyreactivity
QLQLVESGGGLVQAGGSLRRSCAPSGRILWVNAMGWSRQAPGKERELVAAISLSGGRTYYADSVKGRFTISRDNAKNTVYLQMNSLKPEDTAVYYCAARTVNYYYTTGDYWGQGTQVTVSS	low polyreactivity
QVQLVESGGGLVQAGGSLRLSCAASGITFYRYAMGWYRPAPGKERELVAAISSRGGRTYYADSVKGRFTISRDNEKNTVYLQMNSLKPEDTGVYYCAKGGIVGSTLEYDYWGQGTQVTVSS	high polyreactivity
QVQLVESGGGIVQAGGSLRLSCAASGRIFVLYAMGSYRQAPGKERELVADITVSGGRTYYADSVKGRFTISRDNAKYTVYLQMNSLKPEDTAVYYCAASPRSYYWRYYQEDYWGQGTQVTVSS	high polyreactivity
QVKLVESGGGLVQAGGSLLLSCDASGIIFKYYAMGWYRQAPGKERELVARITARGGRTYYADSVKGRFTISRDNAKNTVYLQMNSLKPEDTAFYYCAKKLRGWHTIITDYDYWGQGTQLTVSS	low polyreactivity
QVQLVESGGGLVQAGGSLRLSCAASGSTFTIYAIGWSRQAPGKERELVAGITRVGSTNYADSVKGRFTISRDNAKNTVYLQMNSLKPEDTAVYYCARRDLFQAGYEYWGQGTQVTVSS	low polyreactivity
QVQLVESGGGLVQAGGSLRLSCAASGSIFDAYMGWYRQAPGKERELVAGITRSGGSTYYADSVKGRFTISRDNAKNSVYLQMNSLKPEDTAVYYCAADYSSDGDYWGQGTQVTVSS	low polyreactivity
QVQLVESGGGLVQAGGSLRLSCAASGSISDWNAMGWYRQAPGKERELVAAINWSGDTTYYADSVKGRFTFSRDNSKNTVYLQMNSLKPEDTAVYYCAAYLVVDYDWYDYWGQGTQVTVSS	high polyreactivity

Sequence	polyreactivity (PSR sort gate)
QVQLVESGGGLVQAGGSLRLSCAASGSIFEEYAMGWYRHAPGKERELVARIDESGGSTYYADSVKGRFTISRDNAKNTVYLQMNSLKPEDTAVYYCAAERYSDSWGYYSVDEGSWEMDYWGQGTQVTVSS	low polyreactivity
QVQLVESGGGLVQAGGSLRLSCAASGSTFVYYAMGWYRQAPGKEREFVAAISISTGSTYYADSVKGRFTISRDNAKNTVYLQMNSLKPEDTAVYYCAVDWFLGGYDDLDYWGQGTQVTVSS	low polyreactivity
QVQLVESGGGVVQAGGSHRLSCAASGRTFRGNAMGWYRQAPGTERELVATITCSGGSTYYADSVKGRFTISRDNAKNTGYLQMNSLKPEDTAGYAGAVRGLHLVWVPFGYDYWRQGTQVTVSS	low polyreactivity
QVQLVESGGGLVQAGGSLRLSCAASGSIFQHNAMGWYRQAPGKERELVATISESGGSTYYADSVKGRFTISRDNAKNTVYLQMNSLKPEDTAVYYCNTDYDYGWWDLGEFDYWGQGTQVTVSS	low polyreactivity
QVQLVESGGGLVQAGGSLRLSCAASGSIFGDNAMGWYRQAPGKERELVATISSSDASTYYADSVKGRFTISRDNAKKTVYLQMNSLKPEDTAVYYCAAARSGGYDYWGQGTQVTVSS	low polyreactivity
QVQLVETGGGLVQAGGSLRLSCAASGTLSSYAMGWYRPAPGTERELVAAISLSGGSTYADSVKGRFTISRDNAKNTVYLQMNSLKPEDTAVYYCAATSSFRYDYWGQGTQVTVSS	low polyreactivity
QVQLVESGGGLVQAGGSLRLSCAASGSTVEYYAMGWYRQAPGKERELFAAISSGPSTTYADSVKGRFTISRDNAKNTVYLQMYSLKREDTAVYYCARLDGTTQALFGYDYWGQGTQVTVSS	low polyreactivity
QVQLVESGGGLVQAGGSLRLSCAASGRTFYRNAMGWYRQAPGKERELVAAISRGDSTYYADSVKGRFTISRDNAKNTVYLQMNSLKPEDTAVYYCAKRARRIGDVNMGSWGQGTQVTVSS	low polyreactivity
QVHLVESGGGLVQAGGSLRLSCAASGFIFDKYAMGWYRQAPGKERELVAAITDTGGNTYYADSVKGRFTISRDNAKNTVYLQMNSLKPEDTAVYYCNADYNDYQTYSATTYEYWGQGTQVTVSS	low polyreactivity
QVQLVESGGGLVQAGGSLRLSCAASGFIFYYYAMGWYRQAPGKERELVASISSSGGRTYYADSVKGRFTISRDNAKNTVYLQMNSLKPEDTAVYYCAARGPYGYDLLYYWGQGTQVTVSS	high polyreactivity
QVQLVESGGGLVQAGGSLRLSGDATGLIFNKYAMGWYRQAPGKERELVAVISFRGDGTHYADSVKGRFTISRDNAKYTVYLQMNSLKPEDTAVYYCNARTSIYGRRLYDYWGQGTQVTVSS	high polyreactivity
EEELVESGGGLVQAGGSLRLSCAASGSTFLVYAMGWYRQAPGKERELVAVITYSTVRTYYADSVKGRFTISRDNAKNTVYLQMNSLKPEDTAVYYCNADIEFAVLGQGMDYWGQGTQVTVSS	low polyreactivity
QVQLVESGGGLVQAGGSLRLSCAASGFIFSRYVMGWYRQAPGKERELVAAISGSGGRTYYADSVKGRFTISRDKAKNTVYLQMNSLKPEDTAVYYCAARFLSPYHYYYWGQGTQVTVSS	high polyreactivity
QVQLVESGGGLVQAGGSLPLSCAASGRTFNFYAMGWYRQAPGKERELVATISGGVSTYYADSVKGPFTISRDNAKITVYLQMNSLKPEDTAVYYCAKDSCYPQWDLDYWGQGTQVTVSS	high polyreactivity
QVQLVESGGGLVQAGGSHRLSCAASGRTFVFYAMGWYRPAPGKERELVAAISRSGGSTYYADSVKGRFTISRDNAKNTVFLQMNSLKPEDTAVSYCNARYTGSGGYWGQGTQVTVSS	high polyreactivity
QVQLVESGGGLVQAGGSLRLSCAASGNIFETYAMGWYRQAPGKERELVAVITRGGSTYYADSVKGRFTISRDNAKNTVYLQMNSLKPEDTAVYYCARDAFDDWYGLTDDKSDYWGQGTQVTVSS	low polyreactivity
QVQLVESGGGLVQAGGSLRLNCAASGSIFDDYAMGWYRQAPGKERELVAAINIRTGSTYYADSEKGRFTISRDNAKNTVYLQMNSLKPEDTAVYYCNSVVRGFVRHLDYWGQGTQVTVSS	low polyreactivity
QVQLVESGGGLVLAGGSLRLSCAASGRSFVSNALGWSRQAPGSDRELVARISNGASTDADSVKGRFTISRDNAKKTVYLQINSLKPEDTAVYYSAKTTRRGGVALGEYDYWGQLTQVTVSS	low polyreactivity
QVQLVESGGGLVQAGGSLRLSCAASGRIYWNDMGWYIQAPGKERELVAAISWGGDRTYYADSVKGRFTISRDNAKNTVYLQMNSLKPEDTSVYYCNAPGYLTYDHSYDYWGQGTQVTVSS	low polyreactivity
QVQLVESGGGLVQAGGSLRLSCGASGFIFKSYAMGWYRQATGKERELVAAFSRSGSSTYYADSVMGRFTISRDNAKNTVYLQMNSLKPEDTAVYYCAKKGYRFIHFGYDYWGQGTQVTVSS	high polyreactivity
QVQLVESGGGLLQAGGSLRLSCAASGRIFVHYVMGWYRQAPGKERELVAAINVSGGGTYYADSVKGRFTISRDNAKNTVYLQMNCLKPEDTAVFYCAAGTTQDWPFSSRSYFGHDSWGQGTQVTVSS	low polyreactivity
